Paper PMC11519345, “Structural variation of types IV-A1- and IV-A3-mediated CRISPR interference”

Target: Type IV-A1 effector complex (Cas5-Cas8-Cas7-Cas6 crRNP), DinG-free;DinG (CasDinG, Csf4) type IV-A1 (Pseudomonas oleovorans;Pseudomonas …, UniProt A0A379PL53;A0A379PIR4;A0A379PIR9;A0A379PNK2;A0A379PL92 …, |)
Assay: cryo-EM; crRNA; DinG bound; PDB code not assigned in the material; EMSA: 10 mM HEPES pH 7.5, 150 mM NaCl, 1 nM DNA, on ice then 20 min RT, 6% native PAGE in TBE at 4 C; cryo-EM: 10 uM complex + 15 uM DNA in the same buffer, 10
Settings: protein: recombinant;recombinant; tags: His6 C-terminal on Cas8;; copies: 1;1;5;1;1; bubble: non-complementary protospacer, paired 15 nt and 14+ nt ends

B1: Type IV-A1 bubbled target DNA (TS/NTS) for cryo-EM (dsDNA)
DNA 1: CGGTCGGGTCATACGTCGCGTCTCGAATCTGATGCGTAACTTGGATGCTTCGTGCGTGATG
DNA 2: CATCACGCACGAAGACCAAGTCAATGCTTAGTCTAATACCTGCGCTCGTATGACCCGACCG
binding result: binds
